The record followed here is ChEMBL document CHEMBL5108047.

In data set [1] the test system is CN(C(=S)Cn1nc2c(c1C(F)(F)F)CCC2)c1ccccc1. The settings on record: Homo sapiens; dose 2.5 nM.
Description: Inhibition of human DNA polymerase theta assessed as substrate Km using dNTP as substrate at 2.5 nM
Data set [2] shares this test system. The settings on record: Homo sapiens; dose 30.0 nM.
Description: Inhibition of human DNA polymerase theta assessed as substrate Km using dNTP as substrate at 30 nM
The test system is the same in data set [3]. The following applies: Homo sapiens; dose 2.5 nM. This is another data set of the same source.
Data set [4] has the same test system. The settings on record: Homo sapiens; dose 10.0 nM.
Data set [5] shares this test system. The settings on record: Homo sapiens; dose 5.0 nM.
Data set [6] has the same test system. The settings on record: Homo sapiens; dose 10.0 nM. This is another data set of the same source.
Data set [7] shares this test system. The following applies: Homo sapiens; dose 20.0 nM.
For data set [8] the test system is unchanged. The settings on record: Homo sapiens; dose 30.0 nM. The source holds these as a separate data set.
Description: Inhibition of human DNA polymerase theta assessed as substrate Vmax using dNTP as substrate at 30 nM
For data set [9] the test system is unchanged. The following applies: Homo sapiens; dose 5.0 nM. This is another data set of the same source.
Description: Inhibition of human DNA polymerase theta assessed as substrate Km using dNTP as substrate at 5 nM
The test system is the same in data set [10]. The settings on record: Homo sapiens; dose 40.0 nM.
Data set [11] shares this test system. The following applies: Homo sapiens; dose 20.0 nM. The source holds these as a separate data set.
Data set [12] has the same test system. The following applies: Homo sapiens; dose 40.0 nM. The source holds these as a separate data set.

By Km is commonly meant the substrate concentration at which the rate is half of its maximum. Usually Vmax stands for the rate approached at saturating substrate. In the case of “DNA polymerase theta (Homo sapiens), O75417”, the Km in data set [1] was 25.2 µM; in data set [2], 112 µM; in [4] it was 24 µM; in data set [7] it was 57 µM; in data set [9], 36.6 µM; in [10] it was 39.5 µM. Further, the Vmax in data set [3] was found to be 51.2 µM/min; in data set [5], 51.3 µM/min; in data set [6], 25.5 µM/min; in data set [8], 15.2 µM/min; in data set [11], 21.8 µM/min; in data set [12], 6.45 µM/min.
